{"source": "the nanobody polyreactivity screen of Harvey et al. (2022)", "data": [{"test": "yeast display, Sf9 membrane polyspecificity reagent, FACS + sequencing; frameworks hold sequencing errors", "procedure,_shortened": "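Synthetic nanobody libraries on Saccharomyces cerevisiae BJ5465 were galactose-induced for 36–48 hours, stained 1 hour at 4 °C with 10% biotinylated, detergent-solubilized Sf9 membrane reagent and enriched on streptavidin microbeads. FACS then separated cells into low and high (top ~1%) gates by anti-HA (expression) and streptavidin (reagent binding) fluorescence. Genes were colony-PCR amplified, MiSeq 2 × 250 sequenced and CDR-length filtered. A clone's polyreactivity label is that of its gate of origin.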", "values": [{"sequence": "QVQLVESGGGLVQAGGSLRLSCAASGRIGAYAMGWYRQAPGKERELVAAIRWSTGSTYYADSVKGRFTISRDNAKNTVFLQMNSLKPEDTAVYYCAAEFVRRGGDFWGQGTQVTVSS", "polyreactivity (PSR sort gate)": "high polyreactivity"}, {"sequence": "QVQLVESGGGLVQAGGSLRLSCAASGRISAYAMGWYRQAPGKERELVAAISSRGGRTYYADSVKGRFTISRDNAKTTVYLQMNSLKPEDTAVYYCNALRPWEFDHWGHGTQVTVSS", "polyreactivity (PSR sort gate)": "high polyreactivity"}, {"sequence": "QVQLVESGGGLVQAGGSLRLSCAASGITFYPYVMGWYRQAPGKERELVAVITWSGGRTYYADSVKGRFTISRDNAKNTVYLQMNSLKPEDTAVYYCAADPLSGYDYWGQGTQVTVSS", "polyreactivity (PSR sort gate)": "low polyreactivity"}, {"sequence": "QVQLVESGGGLVQAGGSLRLSCAASGFTFYHNAMGWYRQAPGKERELVAAISSSGDSTYYADSVKGRFTIARDNAKNTVYLQMNSLKPEDTAVYYCNDYFYYLSQYYYYWFNYDYWGQGTQVTVSS", "polyreactivity (PSR sort gate)": "low polyreactivity"}, {"sequence": "QVQLVESGGGLVQAGGSLRLSCAASGSIFGTNAMGWYRQAPGKERELVAAINSGGSTNYADSVKGRFTISRDNAKNTVYLQMNSLKPEDTAVYYCAADEGLWSPSRNAYDYDYWGQGTQVSVSS", "polyreactivity (PSR sort gate)": "low polyreactivity"}, {"sequence": "QVQLVESGGGLVQAGGSLRLSCAASGRIFRWYAMGWYRQAPGKERELVASISSGGSTNYADSVKGRFTISRDNAKNTVYLQLNSLKPEDTAVYYCAADFATPGPAYDYWGEGTQVTVSS", "polyreactivity (PSR sort gate)": "low polyreactivity"}, {"sequence": "QVQLVESGGGLVQAGGSLRLSCAASGSIFPGYAMGWYRQAPGKERELVATITWSGGSTYYADSVKGRFTISRDNAKNTVYLQMNSLIPEDTAVYYCNADSNWYYQWNYYGLYDYWGQGTQVTVSS", "polyreactivity (PSR sort gate)": "low polyreactivity"}, {"sequence": "QVQLVESGGGLVQAGGSLRLSCAASGRTFWWYAMGWYRQAPGKERELVAAITWSTGITFYADSVKGRFTISRDNAKNTVYLQMNILKPEDTAVYYCAADTGTFFGGFDYWGQGTQVTVSS", "polyreactivity (PSR sort gate)": "high polyreactivity"}, {"sequence": "QVQLVESGGGLVQAGGSLRLSCAASGRTFTGNVMGWYRQAPGKERELVAAISRRGGITYYADSVKGRFTISRDNAKNTVYLQMNSLKPEDTAVYYCDAYSWRRQGDHYDYWGQGTQVTVSS", "polyreactivity (PSR sort gate)": "high polyreactivity"}, {"sequence": "QVQHVESGGGLVQAGGSLRLSCAASGRTFSWYVMGWYRQSPGKERELVAAISWNGGRTYYADSVKGRFTISRDNAKNTVYLQMNSLKPEDTAVYYCAAKSYHGYPFDYWGQGTQVTVSS", "polyreactivity (PSR sort gate)": "high polyreactivity"}, {"sequence": "QVQLVESGGGLVQAGGSLRLSCAASGRTFIRYAMGWYRQAPGKESELVAAISSRGGRTHYADSVKGRFTISRDNAKNTVYLQMNSLKPEDTAVYYCAADLTYVTVPGASYDYWGQCTQVTVSS", "polyreactivity (PSR sort gate)": "low polyreactivity"}, {"sequence": "QVQLVESGGGLVQAGGSLRLSCAASGSIFWGYDMGWYRQAPGKERELVASISYSGGSTSYADSVKGRFTISRDNAKNTVYLQMNSLKPEDTAVYYCAADEGGFWWTYPYDSWGQGTQVTVSS", "polyreactivity (PSR sort gate)": "low polyreactivity"}, {"sequence": "QVQLVESGGGLVQAGGSLRLSCAASGMGWYRQAPGKERELVATITWSDGITYADSVKGRFTISRDNAKNTVYLQMNSLKPEDTAVYYCNADWDQTGTVFYSFGMREMDSWGQGTQVTVSS", "polyreactivity (PSR sort gate)": "low polyreactivity"}, {"sequence": "QVQLVESGGGIVQAGGSLRLSCAASGSSHGYAMGWYRQAPGKERELVAAISLNTGSTYYADSVNGRFTISRDNAKNTVYLQMNSLKPEDTAVYFCNADDYTYATYEYDYWGQGTQVTVSS", "polyreactivity (PSR sort gate)": "low polyreactivity"}, {"sequence": "QVQLVESGGGLVQAGGSLRLSCAASGRIFGVNAMGWYRQAPGKERELVAAIRYSGGSTYYADSVKGRFTISRDNAKNTVYLQMNSLKPEDTAVYYCAKARYTYSWSFGYWGQGTQVTVSS", "polyreactivity (PSR sort gate)": "low polyreactivity"}, {"sequence": "QVQLVESGGGLVQAGGSLRLSCAASGNTLASYAMGWYRQAPGKEREFVAAITNRSGSTYYADSVKGRFTISRDNAKNTVYLQMNSLKPEDTAVYYCAARYGRRSGQMGYWGQGTQVTVSS", "polyreactivity (PSR sort gate)": "high polyreactivity"}, {"sequence": "QDQLVESGGGLVQAGGSLRLSCAASGSTFNIYAMGWYRQAHGTVRELVARITSGGSTNYADSVKGRFTISRDNAKNTVYLQMKSLKPEDTAVYYCAARLKWGLPTYDYWGQGTQVTVSS", "polyreactivity (PSR sort gate)": "high polyreactivity"}, {"sequence": "QVQLVESGGGLVQAGGSLSLSCAASGATFVRNAMGWYRQAPGKERELVAVISFRGGRTYYADSVKGRFTISRDNAKNTVYLQMNSLNPEDTAVYYCAKDRVASGVISSVDSWGQGTLVTVSS", "polyreactivity (PSR sort gate)": "low polyreactivity"}, {"sequence": "QVQLVESGGGLVQAGGSLRLSCAASGRIFYTYVMGWYRQAPGKERELVAAINRSGGTTYYADSVKGRFTISRDNAKNTGYLPMNSLKPEDTAVYYCNATLPDYWPYYYYQGGDDYWGQGTQVTVSS", "polyreactivity (PSR sort gate)": "low polyreactivity"}, {"sequence": "QVQLVESGGGLVQAGGSLRLRCGASGSTFGIYAMGWYRQAPGKERELVAAITLRTDSTYYADSVKGRFTISRDNAKNTVYLQMNSLKPEDTAVYYCARRYRYGYDYWGQGTQVSVSS", "polyreactivity (PSR sort gate)": "low polyreactivity"}, {"sequence": "QVQLVESGGGLVQAGGSLRLSCAASGSIFRAYVMGWYRQAPGTERELVAAISRGGSTNYADSVKGRFTISRDNAKNTVFLQMNSLKPEDTAVYYCNAGRGLREDDYWGQGTQVTVSS", "polyreactivity (PSR sort gate)": "low polyreactivity"}, {"sequence": "QVQLVESGGGLVQAGGSLRLSCASSGRIFDSNTMGWYRQAPGKERELVAAINWSDGSTYYADSVKGRFTISRDNAKYTVFLQMNSLKPEDTAVYYCNAGARRYLYDYWVQGTQVTVSS", "polyreactivity (PSR sort gate)": "low polyreactivity"}, {"sequence": "QVQLVESGGGLVQAGGSLRLSCAASGIIFYRYAMGWYRQAPGKERELVAVISRSGCSTYYADSVKGRFTISRDNAKNTVYLQMNSLKPEDTAVYYSAAGRRYDGTRHDYWGQGTQVTVSS", "polyreactivity (PSR sort gate)": "high polyreactivity"}, {"sequence": "QVQLVESGGGLVQAGGSLRLSCAASGIIFFWNAMGWYRQAPGKERELVAAISEDGGGTYYADSVKGRFTISRDNAKNTVYLQMNSMKPEDTAVYYCNTDTSPQIVTRGSFDDYWGQGTQATVSS", "polyreactivity (PSR sort gate)": "low polyreactivity"}, {"sequence": "QVQLVESGGGLVQAGGSLRLSSAASGSTFRYYPMGWYRQAPGKERELLARISWRGGSTYYADSVKGRFTISRDNAKNTVYLQMNSLKPEDTAVYYCAAVRWVRYRTSAYEYWGQGTQVTVSS", "polyreactivity (PSR sort gate)": "high polyreactivity"}, {"sequence": "QVQLVESGGGLVQAGGSLRLSCAASGSTFRSNAMGWYRQAPGKERELVAAISSRVGTTYYADSVKGRFTISRDNAKNTVYLQMNSLKPEDTAVYYCAAQGWRYYRTVVPMDYWGQGTQVTVSS", "polyreactivity (PSR sort gate)": "low polyreactivity"}, {"sequence": "QVQLVESAGGLVQAGGSLRLICDASGSTFGYYAIGWYRQAPGKEREVVAVINKSGGRTYYADSVKGRFTISRDNAKNTVYLQMNSLNPVDTAVYFCATRVTSTRHDYWGQGTQVTVSS", "polyreactivity (PSR sort gate)": "high polyreactivity"}, {"sequence": "QVQRVESAGGLVQAGGSLRLSSAASGFTFRRYAMGWYRQARGKERELVARITWSGTSTDYADSEKGRFTISRDNAKNTVYLQMNSLKPEDTAVYYCAKAYTPWSGRYFAGVGYYYWGQGTQVTVSS", "polyreactivity (PSR sort gate)": "high polyreactivity"}, {"sequence": "QVQLVESGGGLVQAGGSLRLSCAPSGITFLHYAMGWYRQAPGKERELVAAITRGGITYYADSVKGRFTISRDNAKNSVYLLMNSLKPEDTAVYYCNALGFGSNYDYWGQGTQVTVSS", "polyreactivity (PSR sort gate)": "high polyreactivity"}, {"sequence": "QVQLVDSGGGLVQAGGSLRLSCAASGFTIPTYAMGWYRQAPGKERELVAAISGDGDSTYYADSVKGRFTISRDNAKNTVYLQMNSLKPEDTAVYYCAAEPNVYFSVFVLFPSDYWGQGTQVTVSS", "polyreactivity (PSR sort gate)": "low polyreactivity"}, {"sequence": "QVQLVESGGGLVQAGGSLRLSCAASGSTFSYYAMGWYRQAPGKERELVAAISRSGGSTYYADSVKGRFTISRDNAKNTVYFQMNSMKPEDTAVYYCADRGQYRYSFGDYSWGQGTQVTVSS", "polyreactivity (PSR sort gate)": "high polyreactivity"}, {"sequence": "QVQLVESGGGLVQAGGSLRLSCAASGSIFKQNAMGWYRQAPGKERELVADITSSGGSTYYADSVKGRFTISRDNAKNTVYLQMNSLKPEDTAVYYCAADGNGVDYDYWGQGTQVTVSS", "polyreactivity (PSR sort gate)": "low polyreactivity"}, {"sequence": "QVQLVESGGGLVQAGGSLRLSCADSGFIFGNYAMGWYRQAPGKERELVAGISGSGGSTYYADSVKGRFTISRDNAKNTVYLQMNSLKPEDTAVYYCNAGWHPSQGRFEYWGQGTQVTVSS", "polyreactivity (PSR sort gate)": "high polyreactivity"}, {"sequence": "QVQLVESGGGLVQAGGSLRLTCAASGRTFGDNAMGWYRQAPWKERELVAAITSGASTYYADAVKGRFTISRDNAMNTVYLQMNSLKPEDTAVYYCADDQGDWNGYGFDYWGQGTQVTVSS", "polyreactivity (PSR sort gate)": "low polyreactivity"}, {"sequence": "QVQLVESGGGLVQAGGSLRLSCAASGNIFTGYMGWYRQAPGKERELVAAISRSGGRTHYADSVKGRFTISRDNAKNTVYLQMNSLKPEDTAVYYCNADVRRYTAFTKDAYAFNYWGQGTQVTVSS", "polyreactivity (PSR sort gate)": "high polyreactivity"}, {"sequence": "QVQLVESGGGLVQAGGSLRLSCAASGITFDRNVMGWYRQAPGTERELVAAISKSGGRTYYADSVKGRFRISRDNAKNTDYLQLNSLKPEDTAVYYCNADVYSRKSLHQYEYWGQGTQVTVSS", "polyreactivity (PSR sort gate)": "high polyreactivity"}, {"sequence": "QVQLVESGGGLVQAGGSLRLSCAASGNTFISYAMGWYRQAPGKERELVAAITWSGGSTYYADSVKGRFTISRDNAKNTVYLQMNSLKPEDTAVYYCAKFTHNYYYWGQGTQVTVSS", "polyreactivity (PSR sort gate)": "high polyreactivity"}, {"sequence": "QVQLVESGGGLVQAGGSLRLSCAASGRIIADNAMGWYRQAPGKERELVATISSGGSTSYADSVKGRFTLSRDNAKNTVYLQMNSLKPEDTAVYYCATPFTGPSGPYDYWGQGTQGTVSS", "polyreactivity (PSR sort gate)": "low polyreactivity"}, {"sequence": "QGQLVESGGGLVQAGGSLRLSSAASGRIYLTNAMGWYRPAPGKERELVAAITSGGSTYYADSVKGRFTISRDNAKNTVYLQMNSLKPEDTAVYYCNADTDRYWPYEYDYWGQGTQVTVSS", "polyreactivity (PSR sort gate)": "low polyreactivity"}, {"sequence": "QVQLVESGGGLVQAGGSLSLSCAASGSTFTEYAMGWDRQAPGKERELVAGISSDGSTKYADSVKGRFTISRDNAMNTVYLQMNSLKTEDTAVYYCYIVQSYAKYDYWGQGTQVTVSS", "polyreactivity (PSR sort gate)": "low polyreactivity"}, {"sequence": "QVQLVESGGGLVQAGGSLRLSCDASGFIFNAYAMGWYRQAPGKERELVAAISTRGSNTYYADSVKGRFTISRDNAKNTVYLQMNSLKPDDTAVYYCAARGYVTFSKSNYWGQGTQVTVSS", "polyreactivity (PSR sort gate)": "high polyreactivity"}, {"sequence": "QVQLVESGGGLVQAGGSLRLSCAASGSIFKIYAMGWYRQAPGKERELVARITRRGGRTNYADSVKGRFTISRDNAKNTVYLQMNSLKPEDTAVYYCASLGRRGGDYWGQGTQVTVAS", "polyreactivity (PSR sort gate)": "high polyreactivity"}, {"sequence": "QVQLVESGGGLVQAGGSLRLSCAASGRTFTSYAMGWYRQAPGKERELVATISTGGSTNYADSVKGRFTISRDNAKNTVYFQMNSLKPEDTAVYYCAAQVDGKRQYYRYDYWGQGTQVTVSS", "polyreactivity (PSR sort gate)": "low polyreactivity"}]}]}
